Measurements taken from article PMC7037359.

Biological target: Human recombinant ADAM17 (human) (UniProt P78536)
UniProt P78536, sequence (P78536 18-824): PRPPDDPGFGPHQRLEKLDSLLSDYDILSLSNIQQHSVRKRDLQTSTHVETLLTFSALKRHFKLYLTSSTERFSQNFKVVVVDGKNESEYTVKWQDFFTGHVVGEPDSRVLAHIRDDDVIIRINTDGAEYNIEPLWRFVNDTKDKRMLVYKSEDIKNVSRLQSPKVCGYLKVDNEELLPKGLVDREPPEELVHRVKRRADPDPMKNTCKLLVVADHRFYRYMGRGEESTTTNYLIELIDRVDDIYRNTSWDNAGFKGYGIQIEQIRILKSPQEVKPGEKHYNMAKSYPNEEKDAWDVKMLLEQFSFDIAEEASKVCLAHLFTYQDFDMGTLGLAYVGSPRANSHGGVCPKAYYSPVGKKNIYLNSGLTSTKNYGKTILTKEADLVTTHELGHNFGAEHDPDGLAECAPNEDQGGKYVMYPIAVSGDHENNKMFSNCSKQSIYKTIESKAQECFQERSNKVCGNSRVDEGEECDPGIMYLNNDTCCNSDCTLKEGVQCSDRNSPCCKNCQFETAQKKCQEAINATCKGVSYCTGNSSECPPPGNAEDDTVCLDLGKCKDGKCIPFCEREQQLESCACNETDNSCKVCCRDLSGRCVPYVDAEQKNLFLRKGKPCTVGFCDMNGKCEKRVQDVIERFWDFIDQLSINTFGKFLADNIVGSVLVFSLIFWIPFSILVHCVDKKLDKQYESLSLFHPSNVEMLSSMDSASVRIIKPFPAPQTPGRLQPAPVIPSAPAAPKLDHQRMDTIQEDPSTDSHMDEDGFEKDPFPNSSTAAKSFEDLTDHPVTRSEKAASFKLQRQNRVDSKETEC

Substance: Mca-KPLGL-Dpa-AR-NH2, fluorogenic ADAM17 substrate (peptide)
- Km of the ADAM17-catalysed cleavage of the fluorogenic substrate (Lineweaver–Burk plot), control without E144: 580 µM
- Km of the ADAM17-catalysed cleavage of the fluorogenic substrate (Lineweaver–Burk plot), in the presence of 5 μM E144: 20 µM
